# Earlier results as cited in article PMC8448686.
# What was measured:
# HER2 (Homo sapiens) = HER2 (Homo sapiens) (UniProt P04626); experiment: LigandTracer
# CD20 (Homo sapiens) = CD20 (Homo sapiens) (UniProt P11836); experiment: LigandTracer
# Sequence of UniProt P11836 (P11836 whole entry): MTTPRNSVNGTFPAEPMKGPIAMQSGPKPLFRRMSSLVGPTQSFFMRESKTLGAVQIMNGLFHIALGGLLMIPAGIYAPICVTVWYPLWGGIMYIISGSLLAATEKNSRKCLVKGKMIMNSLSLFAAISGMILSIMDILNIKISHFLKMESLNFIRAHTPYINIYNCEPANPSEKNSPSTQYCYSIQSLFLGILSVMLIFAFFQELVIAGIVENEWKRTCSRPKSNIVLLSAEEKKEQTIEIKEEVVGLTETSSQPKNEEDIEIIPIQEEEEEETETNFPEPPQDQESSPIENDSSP
Kd (HER2 (Homo sapiens)),Substance,Kd (CD20 (Homo sapiens))
0.13 nM,Pertuzumab,–
–,Rituximab,0.93 nM
